Experimental data reported in patent US20030175712A1 (published 2003).
Residue numbers refer to the chain shown, from its start.

Tests used:
[1] = biological target: Gβγ (Ste4p/Ste18p) in yeast cells (S. cerevisiae) (UniProt P18852); assay: cell-based or functional assay
MBP-Far1 = biological target: T1, MBP-Far1 (S. cerevisiae, UniProt P21268 1-830, limits assumed); assay: in vitro binding of fusion proteins purified from E. coli
T1 construct: Expressed and purified from E. coli
T1 sequence (looked up): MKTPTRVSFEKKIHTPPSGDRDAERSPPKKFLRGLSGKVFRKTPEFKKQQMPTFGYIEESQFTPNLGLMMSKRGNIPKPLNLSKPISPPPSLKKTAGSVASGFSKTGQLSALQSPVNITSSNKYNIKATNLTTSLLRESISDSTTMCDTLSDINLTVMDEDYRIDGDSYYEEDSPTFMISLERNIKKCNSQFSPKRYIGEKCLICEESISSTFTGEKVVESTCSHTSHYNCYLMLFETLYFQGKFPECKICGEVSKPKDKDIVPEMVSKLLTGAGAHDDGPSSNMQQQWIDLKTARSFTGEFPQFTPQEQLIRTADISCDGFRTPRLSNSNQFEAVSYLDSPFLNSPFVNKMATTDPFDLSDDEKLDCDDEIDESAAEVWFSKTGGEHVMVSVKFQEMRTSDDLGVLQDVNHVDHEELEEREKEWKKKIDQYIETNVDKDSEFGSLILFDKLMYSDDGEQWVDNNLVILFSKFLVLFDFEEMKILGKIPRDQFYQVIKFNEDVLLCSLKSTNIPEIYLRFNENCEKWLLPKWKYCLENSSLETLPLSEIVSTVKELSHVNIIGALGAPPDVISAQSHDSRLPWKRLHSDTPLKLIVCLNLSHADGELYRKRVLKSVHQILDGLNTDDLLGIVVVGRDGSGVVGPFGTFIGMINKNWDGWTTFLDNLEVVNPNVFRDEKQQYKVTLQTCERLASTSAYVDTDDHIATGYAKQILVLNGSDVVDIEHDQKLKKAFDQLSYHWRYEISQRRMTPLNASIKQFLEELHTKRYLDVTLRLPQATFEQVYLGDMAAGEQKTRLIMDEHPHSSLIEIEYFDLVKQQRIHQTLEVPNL

MBP-Far1 H7 = biological target: T2, MBP-Far1 H7 (S. cerevisiae, UniProt P21268 1-755); assay: in vitro binding of purified MBP-Far1 and GST-Cdc24 fusions
T2 sequence (looked up): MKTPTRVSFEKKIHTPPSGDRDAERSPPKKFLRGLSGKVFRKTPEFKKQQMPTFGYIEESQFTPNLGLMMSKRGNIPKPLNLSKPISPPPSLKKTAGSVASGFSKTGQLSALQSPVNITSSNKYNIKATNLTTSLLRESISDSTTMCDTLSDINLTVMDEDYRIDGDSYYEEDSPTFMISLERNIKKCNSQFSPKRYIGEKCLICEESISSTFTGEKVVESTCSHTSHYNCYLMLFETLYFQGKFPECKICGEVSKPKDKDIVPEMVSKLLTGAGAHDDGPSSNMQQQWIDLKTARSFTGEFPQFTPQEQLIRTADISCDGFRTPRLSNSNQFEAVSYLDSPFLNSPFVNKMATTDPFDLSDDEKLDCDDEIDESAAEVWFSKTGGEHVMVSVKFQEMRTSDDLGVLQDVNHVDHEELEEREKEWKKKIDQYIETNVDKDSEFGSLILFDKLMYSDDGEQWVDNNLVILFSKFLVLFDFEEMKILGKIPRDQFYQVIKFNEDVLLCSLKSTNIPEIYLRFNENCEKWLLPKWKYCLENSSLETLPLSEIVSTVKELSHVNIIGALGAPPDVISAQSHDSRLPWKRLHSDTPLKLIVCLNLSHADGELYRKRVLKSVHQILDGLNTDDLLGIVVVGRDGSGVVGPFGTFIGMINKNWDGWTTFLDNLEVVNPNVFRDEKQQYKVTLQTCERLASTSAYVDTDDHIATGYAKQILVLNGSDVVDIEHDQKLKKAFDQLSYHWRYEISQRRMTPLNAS

[2] = biological target: T3, Cdc24p, two-hybrid construct (limits not stated) (S. cerevisiae, UniProt P11433 1-288); assay: yeast two-hybrid screen
T3 construct: not shown: GAL4 two-hybrid fusion partner
T3 sequence (looked up): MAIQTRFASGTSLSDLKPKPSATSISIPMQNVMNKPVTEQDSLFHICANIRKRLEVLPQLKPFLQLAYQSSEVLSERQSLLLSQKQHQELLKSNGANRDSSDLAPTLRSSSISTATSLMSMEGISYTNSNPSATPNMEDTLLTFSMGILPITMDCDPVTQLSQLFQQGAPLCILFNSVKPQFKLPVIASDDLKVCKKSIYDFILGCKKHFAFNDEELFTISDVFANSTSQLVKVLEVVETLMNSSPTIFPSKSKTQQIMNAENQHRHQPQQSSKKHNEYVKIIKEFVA

3×myc-Cdc24-m1 mutant = biological target: T4, 3×myc-Cdc24-m1 mutant (S. cerevisiae, UniProt P11433 1-854); assay: co-precipitation with Far1-protein A on IgG-Sepharose from yeast extracts
T4 sequence (looked up): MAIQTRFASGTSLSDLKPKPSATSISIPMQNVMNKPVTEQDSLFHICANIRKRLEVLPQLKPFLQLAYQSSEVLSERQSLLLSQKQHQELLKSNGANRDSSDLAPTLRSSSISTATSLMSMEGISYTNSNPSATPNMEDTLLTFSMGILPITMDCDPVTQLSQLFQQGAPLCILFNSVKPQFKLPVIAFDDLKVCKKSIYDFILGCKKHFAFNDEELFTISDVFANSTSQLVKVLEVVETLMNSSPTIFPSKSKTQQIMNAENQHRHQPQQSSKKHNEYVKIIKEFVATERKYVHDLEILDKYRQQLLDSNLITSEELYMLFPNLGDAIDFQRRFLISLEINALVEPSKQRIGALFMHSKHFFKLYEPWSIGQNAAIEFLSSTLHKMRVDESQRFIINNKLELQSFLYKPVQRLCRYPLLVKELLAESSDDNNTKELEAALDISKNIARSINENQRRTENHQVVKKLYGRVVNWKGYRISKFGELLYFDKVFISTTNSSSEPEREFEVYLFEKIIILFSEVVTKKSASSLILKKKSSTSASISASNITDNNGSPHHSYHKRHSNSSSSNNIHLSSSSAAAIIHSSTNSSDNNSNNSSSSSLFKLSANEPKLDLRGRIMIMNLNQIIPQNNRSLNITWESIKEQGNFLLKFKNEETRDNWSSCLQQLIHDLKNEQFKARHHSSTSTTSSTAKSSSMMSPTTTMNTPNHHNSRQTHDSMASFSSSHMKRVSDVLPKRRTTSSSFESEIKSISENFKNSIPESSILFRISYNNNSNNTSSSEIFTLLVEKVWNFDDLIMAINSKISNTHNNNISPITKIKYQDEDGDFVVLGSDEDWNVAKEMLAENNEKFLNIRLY
From the text: Although cdc24-m and far1-s mutants result in similar defects in growth orientation during mating, we set out to determine if these genes function in the same orientation process. […] Cdc24 and Far1 were epitope tagged in order to determine whether these proteins interact in yeast cells. The chronosomal copy of Cdc24 was replaced with a 3×myc tagged Cdc24 and the chromosomal copy of Far1 was replaced with Far1 protein A fusion. Both of these fusion proteins are fully functional. Isolation of Far1-protein A from yeast extracts using IgG-Sepharose co-precipitated 3×myc-Cdc24. In contrast, the 3×myc-Cdc24-m1 mutant was defective in binding Far1 in similar imnmunoprecipitation assays.

Gβγ (Ste4p/Ste18p) in yeast cells (S. cerevisiae), sequence (P18852 1-107): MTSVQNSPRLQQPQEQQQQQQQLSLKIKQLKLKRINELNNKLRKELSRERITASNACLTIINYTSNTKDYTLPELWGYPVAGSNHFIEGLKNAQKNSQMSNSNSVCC

Cdc24p in CDC24 (wild type) yeast cells (from UniProt P11433 1-854)
average cosine of the angle of cell projection relative to the micropipet (orientation in a pheromone gradient) [1]: 0.52

B1: GSTCdc24p (1-472 aa) (other, S. cerevisiae, UniProt P11433 1-472, looked up)
chain: MAIQTRFASGTSLSDLKPKPSATSISIPMQNVMNKPVTEQDSLFHICANIRKRLEVLPQLKPFLQLAYQSSEVLSERQSLLLSQKQHQELLKSNGANRDSSDLAPTLRSSSISTATSLMSMEGISYTNSNPSATPNMEDTLLTFSMGILPITMDCDPVTQLSQLFQQGAPLCILFNSVKPQFKLPVIASDDLKVCKKSIYDFILGCKKHFAFNDEELFTISDVFANSTSQLVKVLEVVETLMNSSPTIFPSKSKTQQIMNAENQHRHQPQQSSKKHNEYVKIIKEFVATERKYVHDLEILDKYRQQLLDSNLITSEELYMLFPNLGDAIDFQRRFLISLEINALVEPSKQRIGALFMHSKHFFKLYEPWSIGQNAAIEFLSSTLHKMRVDESQRFIINNKLELQSFLYKPVQRLCRYPLLVKELLAESSDDNNTKELEAALDISKNIARSINENQRRTENHQVVKKLYGRVV
notes: range 1-472; Expressed in E. coli; also called GSTCdc24 fusion; GST Cdc24 fusion (residues 1-472); not shown: glutathione-S-transferase as encoded by pGEX-2T (Pharmacia)
binding result (MBP-Far1): binds
binding result (MBP-Far1 H7): no binding

B2: Ste4p mutant (SEQ. I.D. No: 13) (other)
chain: MAHQMDSITYSNNVTQQYIQPQSLQDISAVEEEIQNKIEAARQESKQLHAQINKAKHKIQDASLFQMANKVTSLTKNKINLKPNIVLKGHNNKISDFRWSRDSKRILSASQDGFMLIWDSASGLKQNAIPLDSQWVLSCAISPSSTLVASAGLNNNCTIYRVSKENRVAQNVASIFKGHTCYISDIEFTDNAHILTASGDMTCALWDIPKAKRVRGYSDHLGDVLALAIPEEPNLENSSNTFASCGSDGYTYIWDSRSPSAVQSFYVNDSDINALRFFKDGMSIVAGSDNGAINMYDLRSDCSIATFSLFRGYEERTPTPTYMAANMEYNTAQSPQTLKSTSSSYLDNQGVVSLDFSASGRLMYSCYTDIGCVVWDVLKGEIVGKLEGHGGRVTGVRSSPDGLAVCTGSWDSTMKIWSPGYQ
notes: Isolated in a two-hybrid screen; also called mutant G protein β subunit; I.D. No: 12 (nucleotide); not shown: GAL4 two-hybrid fusion partner
binding result [2]: no binding

B3: Ste4p mutant (SEQ. I.D. No: 15) (other)
chain: B2 chain with G216E, V351A
notes: Isolated in a two-hybrid screen; also called mutant G protein β subunit; I.D. No: 14 (nucleotide); not shown: GAL4 two-hybrid fusion partner
binding result [2]: no binding

B4: Far1 protein A fusion (other, S. cerevisiae, UniProt P21268 1-830, looked up)
chain: T1 sequence (looked up)
notes: Isolated from yeast extracts on IgG-Sepharose; not shown: protein A moiety
binding result (3×myc-Cdc24-m1 mutant): no binding
